Experimental data taken from patent US20240369485A1, “FLUORESCENT SENSOR FOR MONITORING CALCIUM DYNAMICS” (priority 2021, published 2024).

Columns and labels:
HeLa cells = test: Epifluorescence imaging of mitochondria Ca^2+ dynamics; type: cell-based; conditions: 100 μM histamine
Procedure: Cell culture and transfection. HeLa cells were cultured and maintained in DMEM supplemented with 10% FBS and high glucose (4.5 g/L) at 37° C. Individual plasmids were transfected into cells using Lipofectamine 3000 (Life Technologies), following the manufacturer's instructions. Seed cells onto sterilized 22 mm×40 mm glass microscope slides in 6 cm dishes until about 70% confluency, the day of transfection. The next day, 2 μg of plasmid were mixed with transfection reagent in the reduced serum media Opti-MEM for 4-6 h at 37° C. The media was then replaced with 3 mL of fresh DMEM and incubated at 37° C. for 48 h.
Epifluorescence imaging of mitochondria Ca^2+ dynamics. The coverslips with HeLa Cells transfected with mitochondria indicators were mounted on a bath chamber and placed on the stage of a Leica DM6100B inverted microscope with a Hamamatsu cooled EM-CCD camera and illuminated with a Till Polychrome V Xenon lamp. Cells were illuminated at 569 nm, in real-time. Fluorescence images of samples were recorded as the concentration of ER Ca^2+ was perturbed by perfusion of 100 μM histamine.

[1] = Calcium (Ca^2+) binding assay: fluorescence/absorbance titration of purified protein
Procedure: Calcium (Ca^2+) binding assay. 10 μM protein samples of mApple, EGFP, and mCherry variants were titrated with different concentrations of Ca^2+. Data were fitted with a 1:1 binding equation. Fluorescence intensities were collected using a Spectrofluorimeter (Photon Technology International, Inc.) and the absorbance values of Ca^2+-free and Ca^2+-loaded forms were determined using a Shimadzu UV-1601 spectrophotome.
Ca^2+ binding assay. Fluorescence measurements of mApple variants with increasing Ca^2+ concentrations were done in order to obtain the affinity of the sensor for Ca^2+ in vitro. Samples of 10 μM mApple variants with 5 μM EGTA were prepared in triplicate in 1 mL volumes in 10 mM Tris, pH 7.4. The samples were placed in quartz fluorescence cuvettes, and metal ion was titrated into each sample, in a stepwise manner, using 0.1 M and 1 M metal stock solutions. The fluorescence response of the indicator to increasing Ca^2+ concentrations was monitored using a fluorescence spectrophotometer (Photon Technology International, Canada) with the Felix32 fluorescence analysis software. The absorbance spectra before and after titration were obtained using a Shimadzu UV-1601 spectrophotometer.

Fmax/Fmin ([1]; EGFP and mApple variants): 3.80
Aholo/Aapo ([1]; absorbance at 569): 1.60 (569)
Kd ([1]; in vitro, purified protein, read-out: Kd for Ca^2+ binding): 290 ± 20 µM
B1: mApple A145E/K198D/R216E: mApple variant, SEQ ID NO: 25; starting point of mitochondria indicator (protein)
chain: EENNMAIIKEFMRFKVHMEGSVNGHEFEIEGEGEGRPYEAFQTAKLKVTKGGPLPFAWDILSPQFMYGSKVYIKHPADIPDYFKLSFPEGFRWERVMNFEDGGIIHVNQDSSLQDGVFIYKVKLRGTNFPSDGPVMQKKTMGWEESEERMYPEDGALKSEIKKRLKLKDGGHYAAEVKTTYKAKKPVQLPGAYIVDIDLDIVSHNEDYTIVEQYEEAEGRHSTGGMDELYK
fluorescence intensity change of mitochondria targeted indicator (HeLa cells): no fluorescence change was observed
